Results taken from US7521540B2, “CYR61 compositions and methods” (Munin Corporation, priority 1996, dated 2009).

What was measured:
[1] = system: 1064SK primary human foreskin fibroblasts; test: Fibroblast adhesion assay (methylene blue, A620); format: cell-based
Experimental: The ability of Cyr61 to mediate cell adhesion in normal fibroblasts was investigated. Microtiter wells were coated with purified recombinant Cyr61 protein, and 1064SK primary human foreskin fibroblasts were allowed to adhere under serum-free conditions. […] 50 μl cell suspensions were plated on microtiter wells coated with varying concentrations (0.5-5.0 μg/ml) of Cyr61 protein. After incubation at 37° C. for 30 minutes, adherent cells were fixed and stained with methylene blue.
In another experiment, microtiter wells were coated with either BSA, Cyr61 (2 μg/ml), or vitronectin (VN; 0.5 μg/ml) and blocked with affinity-purified anti-Cyr61 antibodies for one hour at 37° C. before 1064SK cells were plated.
The effects of divalent cations in cell adhesion to Cyr61 was also investigated. […] Data are means from triplicate determinations. […] Inhibition by Ca^2+ is characteristic of adhesion through some members of the β1 family of integrins, including receptors that bind type I collagen, laminin, and vitronectin (integrins α2β1, α6β1, and αVβ1) in fibroblasts, as well as the lymphocyte-specific integrin αLβ2.
The effects of RGD peptides on Cyr61-mediated fibroblast binding was tested by plating cells in wells coated with Cyr61 (2 μg/ml). Type I collagen (2 μg/ml) or vitronectin (0.5 μg/ml), 2 mM GRGDSP or GRGESP peptide was then added.
Cells were also pre-incubated with 40 μg/ml monoclonal antibodies against the integrin α5 or the integrin αV subunits at room temperature for 30 minutes, then plated on wells coated with Cyr61 (2 μg/ml), vitronectin (0.5 μg/ml) or fibronectin (FN, 1 μg/ml). […] The data are means, representative of three experiments.
The 1064 SK cells were also analyzed using the monoclonal antibody JBIA, which binds the β1 integrin subunit. Cells were pre-incubated with the antibody (50 μg/ml) before plating on microtiter wells coated with Cyr61 (2 μg/ml), Type I collagen (2 μg/ml), or vitronectin (0.5 μg/ml). […] Data are means, representative of three experiments.
To identify the specific β1 integrin that mediates fibroblast adhesion to Cyr61, the inhibitory effects of function-blocking monoclonal antibodies were tested against various integrin α subunits. […] The data are means, representative of at least three experiments.

HUVE cells = test: Gel matrix invasion and tube formation; format: cell-based, human; conditions: collagen or fibrin gels
Experimental: The end product of in vitro angiogenesis is a well-defined network of capillary-like tubes. When cultured on gel matrices, e.g., collagen, fibrin, or Matrigel gels, endothelial cells must first invade the matrix before forming mature vessels.
In some wells, Cyr61 was mixed into the gel matrix before gelation (final concentration 10 μg/ml), while in other wells, Cyr61 was not in the gel matrix but was added as part of the nutrient medium (similar range of concentrations as in the matrix) after the cells reached confluency. HUVE cells were seeded onto the gel matrix surface at 5×10^4 cells per well in Ham's F12K medium [GIBCO-BRL, Inc.] containing 10% fetal bovine serum, 100 μg/ml heparin, and 30 μg/ml endothelial cell growth factor. When the cells reached confluency, the medium was removed, the cells were rinsed with PBS, and fresh medium without endothelial cell growth factor was supplied. Some cultures received purified recombinant Cyr61, while others received Cyr61 and polyclonal anti-Cyr61 antibodies. […]
Invasion of the gel matrix was quantified about 4-7 days after treatment of the confluent cultures. […] Invasion was quantified by measuring the total length of all cell cords that penetrated beneath the surface monolayer. Results were expressed as the mean length in microns per field for at least 3 randomly selected fields from each of at least 3 separate experiments. […]

B1: Cyr61: Cysteine-rich ECM signaling protein; murine sequence SEQ ID NO:2, recombinant from Baculovirus-infected Sf9 cells (protein, listed as Mus musculus)
chain: MSSSTFRTLAVAVTLLHLTRLALSTCPAACHCPLEAPKCAPGVGLVRDGCGCCKVCAKQLNEDCSKTQPCDHTKGLECNFGASSTALKGICRAQSEGRPCEYNSRIYQNGESFQPNCKHQCTCIDGAVGCIPLCPQELSLPNLGCPNPRLVKVSGQCCEEWVCDEDSIKDSLDDQDDLLGLDASEVELTRNNELIAIGKGSSLKRLPVFGTEPRVLFNPLHAHGQKCIVQTTSWSQCSKSCGTGISTRVTNDNPECRLVKETRICEVRPCGQPVYSSLKKGKKCSKTKKSPEPVRFTYAGCSSVKKYRPKYCGSCVDGRCCTPLQTRTVKMRFRCEDGEMFSKNVMMIQSCKCNYNCPHPNEASFRLYSLFNDIHKFRD
With B1 the “coating concentration at which maximal adhesion was reached” value [1] was 1 µg/mL, the “inhibition by anti-α6 antibody of binding mediated by the coated protein” value ([1]; anti-α6 20 μg/ml) was 78% and the “1064SK adhesion, absorbance” value ([1]; coating 0.5 μg/ml) was “about 0.3 A620”. The “1064SK adhesion, absorbance” value ([1]; coating 1-5 μg/ml) was 0.45-0.55 A620, the “support of 1064SK fibroblast adhesion” value ([1]; protein coated on wells) was “dose-dependent and saturable” and the “matrix invasion and tube formation” value (HUVE cells) was “induce matrix invasion and tube formation”.
